Test results taken from patent publication US20220313780A1, “METHODS AND COMPOSITIONS FOR TREATING INFLAMMATORY CONDITIONS” (THE SCRIPPS RESEARCH INSTITUTE, priority 2019, published 2022).

Target: T1, PAR3 (Homo sapiens, UniProt O00254)
T1 construct: mouse monoclonal antibody to PAR3, clone 19b (clonel9b; 25 μg/mL) for 30 minutes; endogenous in cells; host or cells: THP1-null (wildtype) cells, PMA-differentiated
T1 sequence (O00254 22-374): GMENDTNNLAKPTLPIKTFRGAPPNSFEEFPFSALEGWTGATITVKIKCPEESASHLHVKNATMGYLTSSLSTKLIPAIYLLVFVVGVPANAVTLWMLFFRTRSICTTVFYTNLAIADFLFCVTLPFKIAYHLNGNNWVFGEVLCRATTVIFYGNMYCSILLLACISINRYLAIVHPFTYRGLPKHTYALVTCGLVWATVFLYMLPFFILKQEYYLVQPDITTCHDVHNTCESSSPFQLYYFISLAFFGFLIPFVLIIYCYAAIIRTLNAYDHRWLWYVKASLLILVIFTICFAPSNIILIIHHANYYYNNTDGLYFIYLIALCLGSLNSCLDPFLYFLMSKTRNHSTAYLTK
Experiment: Caspase 1 activity assay in THP1 cells after blocking PAR3 with monoclonal antibody clone 19b
Assay type: cell-based
Conditions: clone 19b 25 μg/mL for 30 minutes before APC 4 μg/mL, TR47 50 μM or P3R 50 μM
Protocol: THP1 or (A) NLRP3 deficient cells (THP1-defNLRP3) cells were plated at a final concentration of 1×10^6/mL in 96 well plates and incubated with PMA (0.5 μM) for 3 hours 37° C. in supplemented RPMI. Media was subsequently changed every 24 hours for 3 days. In brief, selected wells were treated with APC (4 μg/mL), TR47 (50 μM) or P3R (50 μM) for 1 hour, washed with DPBS, and incubated with LPS (1 μg/mL) for 3 hours at 37° C. in serum-free RPMI. After a DPBS wash, cells were incubated with ATP (5 mM) in the presence or absence of 10 μM YVAD (caspase 1 inhibitor) or 2.5 μM ZVAD (pan-caspase inhibitor) for 45 minutes at 37° C. […] Again, cells were washed with DPBS and incubated with ATP (5 mM) in the presence or absence of 10 μM YVAD (caspase 1 inhibitor) or 2.5 μM ZVAD (pan-caspase inhibitor) for 45 minutes prior to performing the caspase 1 activity following manufacturer's directions measuring luminescence. […] After a DPBS wash, cells were incubated with ATP (5 mM) in the presence or absence of 10 μM YVAD (caspase 1 inhibitor) or 2.5 μM ZVAD (pan-caspase inhibitor) for 45 minutes at 37° C., prior to performing the caspase 1 activity assay following manufacturer's directions measuring luminescence (relative luminescent units, RLU). […]

Sequence	effect of blocking PAR3 on anti-inflammatory activity (caspase 1)
GAPPNSFEEFPFSALEGWTGATIT [P3R, PAR3-derived 24-mer peptide]	very significantly reduced the anti-inflammatory activity
NPNDKYEPFWEDEEKNESGL [TR47, PAR1-derived 20 amino acid peptide]	less significantly reduced the activity
